In patent publication US20130052198A1, “ANTI-INFLAMMATORY FACTORS” (THE GENERAL HOSPITAL CORPORATION, priority 2010, published 2013):
“Also recorded” adds a separate entry of the source.

B1: LGALS3BP: Soluble galectin 3 binding protein, highly glycosylated secreted protein; recombinant form tested (protein, UniProt Q08380 19-585, looked up)
Galectin-3-binding protein: VNDGDMRLADGGATNQGRVEIFYRGQWGTVCDNLWDLTDASVVCRALGFENATQALGRAAFGQGSGPIMLDEVQCTGTEASLADCKSLGWLKSNCRHERDAGVVCTNETRSTHTLDLSRELSEALGQIFDSQRGCDLSISVNVQGEDALGFCGHTVILTANLEAQALWKEPGSNVTMSVDAECVPMVRDLLRYFYSRRIDITLSSVKCFHKLASAYGARQLQGYCASLFAILLPQDPSFQMPLDLYAYAVATGDALLEKLCLQFLAWNFEALTQAEAWPSVPTDLLQLLLPRSDLAVPSELALLKAVDTWSWGERASHEEVEGLVEKIRFPMMLPEELFELQFNLSLYWSHEALFQKKTLQALEFHTVPFQLLARYKGLNLTEDTYKPRIYTSPTWSAFVTDSSWSARKSQLVYQSRRGPLVKYSSDYFQAPSDYRYYPYQSFQTPQHPSFLFQDKRVSWSLVYLPTIQSCWNYGFSCSSDELPVLGLTKSGGSDRTIAYENKALMLCEGLFVADVTDFEGWKAAIPSALDTNSSKSTSSFPCPAGHFNGFRTVIRPFYLTNSSGVD
B2: CRLF1: isolated and purified molecular product of the gene CRLF1 (protein, UniProt O75462 38-422, looked up)
Cytokine receptor-like factor …: AHTAVISPQDPTLLIGSSLLATCSVHGDPPGATAEGLYWTLNGRRLPPELSRVLNASTLALALANLNGSRQRSGDNLVCHARDGSILAGSCLYVGLPPEKPVNISCWSKNMKDLTCRWTPGAHGETFLHTNYSLKYKLRWYGQDNTCEEYHTVGPHSCHIPKDLALFTPYEIWVEATNRLGSARSDVLTLDILDVVTTDPPPDVHVSRVGGLEDQLSVRWVSPPALKDFLFQAKYQIRYRVEDSVDWKVVDDVSNQTSCRLAGLKPGTVYFVQVRCNPFGIYGSKKAGIWSEWSHPTAASTPRSERPGPGGGACEPRGGEPSSGPVRRELKQFLGWLKKHAYCSNLSFRLYDQWRAWMQKSHKTRNQDEGILPSGRRGTARGPAR
B3: UDP-N-acetyl-α-D-galactosamine:polypeptide N-acetylgalactosaminyltransferase 1 (protein, UniProt Q10472 1-559, looked up)
Polypeptide …: MRKFAYCKVVLATSLIWVLLDMFLLLYFSECNKCDEKKERGLPAGDVLEPVQKPHEGPGEMGKPVVIPKEDQEKMKEMFKINQFNLMASEMIALNRSLPDVRLEGCKTKVYPDNLPTTSVVIVFHNEAWSTLLRTVHSVINRSPRHMIEEIVLVDDASERDFLKRPLESYVKKLKVPVHVIRMEQRSGLIRARLKGAAVSKGQVITFLDAHCECTVGWLEPLLARIKHDRRTVVCPIIDVISDDTFEYMAGSDMTYGGFNWKLNFRWYPVPQREMDRRKGDRTLPVRTPTMAGGLFSIDRDYFQEIGTYDAGMDIWGGENLEISFRIWQCGGTLEIVTCSHVGHVFRKATPYTFPGGTGQIINKNNRRLAEVWMDEFKNFFYIISPGVTKVDYGDISSRVGLRHKLQCKPFSWYLENIYPDSQIPRHYFSLGEIRNVETNQCLDNMARKENEKVGIFNCHGMGGNQVFSYTANKEIRTDDLCLDVSKLNGPVTMLKCHHLKGNQLWEYDPVKLTLQHVNSNQCLDKATEEDSQVPSIRDCNGSRSQQWLLRNVTLPEIF
notes: recombinant protein product of the GALNT1 gene, secreted factor of marrow stromal cells
B4: TFPI2: isolated and purified molecular product of the gene TFPI2 (protein, UniProt P48307 23-235, looked up)
Tissue factor pathway …: DAAQEPTGNNAEICLLPLDYGPCRALLLRYYYDRYTQSCRQFLYGGCEGNANNFYTWEACDDACWRIEKVPKVCRLQVSVDDQCEGSTEKYFFNLSSMTCEKFFSGGCHRNRIENRFPDEATCMGFCAPKKIPSFCYSPKDEGLCSANVTRYYFNPRYRTCDAFTYTGCGGNDNNFVSREDCKRACAKALKKKKKMPKLRFASRIRKIRKKQF

Assays:
[1] = test system: human peripheral blood mononuclear cells (PBMCs); assay: PBMC potency assay (IL-10 assay): IL-10 secretion by LPS-stimulated PBMCs, ELISA; type: cell-based; settings: recombinant molecules diluted in RPMI 1640
From the text: FIG. 1: MSC conditioned medium causes peripheral blood mononuclear cells to secrete IL-10 in response to LPS, providing the basis for differential gene expression analysis to identify genes responsible for the increased activity. (a) Generalized schematic of EPS methodology. Protein products are derived from various cell types in the form of conditioned media and screened for activity in an in vitro potency assay. […] Recombinant protein products of the enriched gene list are then screened in a potency assay and the candidates with the highest activity are assessed for activity in vivo. (b) In vitro potency assay. This assay entails incubating primary human peripheral blood mononuclear cells (PBMCs) in the presence of protein products (e.g., conditioned medium from a cell) for 16 hours, followed by stimulation of the PBMCs with LPS for five hours, and measurement of IL-10 secretion into the supernatant via ELISA. (c) Time course of IL-10 expression from PBMCs when incubated with either bone marrow stromal cell conditioned medium (BMSC-CM) or unconditioned medium (DMEM) in the potency assay. (d) Comparison of potency assay activity of conditioned medium from normal human dermal fibroblasts (FB-CM), BMSCs (BMSC-CM) and BMSCs preincubated with LPS prior to conditioning (BMSCLPS-CM). * p<0.001 compared to FB-CM, ** p<0.001 compared to BMSC-CM. (e) Schematic of the differential gene expression comparison strategy to select for genes uniquely expressed at high levels in LPS stimulated MSCs (MSCLPS) compared to MSCs and fibroblasts (FBs). Analysis was then conducted on the genes identified to select for genes that were most likely to be responsible for secreted proteins. MSCLPS, LPS stimulated MSC; FB, fibroblast. […]
Leukocytes were prepared from fresh whole human blood, collected and spun in the presence of Ficoll for 30 minutes at 1500×g. […] The resultant supernatants were collected and analyzed via ELISA for human interleukin-10 (IL-10). […]

[2] = test system: human leukocytes in culture; assay: Cytokine production (IL-10 or IFN-γ) in human leukocytes in culture; type: cell-based; settings: concentrations within five orders of magnitude of 10 μg/mL
Procedure: Leukocytes were prepared from fresh whole human blood, collected and spun in the presence of Ficoll for 30 minutes at 1500×g. The mononuclear cell layer was transferred to a new tube where it was washed once with RPMI 1640. The mononuclear cells were plated at a density of 1×10^5 per well of a 96-well plate in 50 μL of RPMI 1640 per well. MSC-CM was then immediately added to each well and allowed to incubate in the presence of the mononuclear cells for 16 hours. After incubation, 50 μL of RPMI 1640 containing 10 μg/mL of LPS was added to each well and allowed to incubate for an additional 5 hours. The resultant supernatants were collected and analyzed via ELISA for human interleukin-10 (IL-10). This procedure of incubating leukocytes with MSC-CM to determine IL-10 stimulating activity will be henceforth referred to as the “IL-10 assay”.
Preparations and use of MSC-CM, Fb-CM, LPS-stimulated MSC-CM, leukocytes were as described in Examples 1-3 and the Figures. These conditioned media preparations were added to leukocyte cultures for 16 hours, after which the culture was stimulated with LPS at 10 μg/ml. The medium from this culture was collected 24 hours after LPS stimulation of leukocytes and analyzed using an IFN-γ ELISA.

[3] = test system: BALB/cJ mice challenged with a sub-lethal dose of LPS; assay: In vivo LPS assay, sub-lethal LPS model: serum cytokines and lung histology; settings: for serum IL-10 levels / serum TNF-α: 3 μg protein or 1 mL 1×BMSC-CM IP, twice, 100 μg LPS, 48 h later, compared to saline
Procedure: FIG. 8: In vivo hit screen and survival study. (a) Schematic of the in vivo LPS assay. Proteins were administered intraperitoneal (IP) at the concentration that elicited the strongest effect in vitro, followed by IP administration of LPS in conjunction with a second dose of the proteins 16 hours later. Two days after the combined LPS and second protein dose, the mice were sacrificed and assessed for changes in serum cytokines and tissue histology. (b) Serum IL-10 levels of BALB/cJ mice subjected to the in vivo LPS assay. * p<0.001 compared to saline. (c) Serum TNF-α levels of BALB/cJ mice subjected to the in vivo LPS assay. * p<0.001 compared to saline, ** p<0.05 compared to BMSC-CM. (d) Representative micrographs of lung tissue from mice subjected to the in vivo LPS assay stained with hematoxylin and eosin. (e) Survival of mice subjected to a lethal dose of LPS i.p. (350 μg) concurrently with i.p. saline vehicle (bold dark blue line), 5 μg Anti-TNF-α antibody (thin dark blue line), 4 μg PENK (bold light blue line) or 4 μg MFAP5 (thin light blue line). Scale bar=200 μm.
All procedures were performed in accordance with the animal rights policies of the Massachusetts General Hospital Subcommittee on Research Animal Care. For the sub-lethal LPS model, eight week old female BALB/cJ mice (n≧3) (Jackson Laboratories, Bar Harbor, Me.) were administered an initial dose of either vehicle or one of the experimental therapies IP: 200 μL of saline (vehicle), or 3 μg of protein (e.g., GALNT1, LGALS3BP, MFAP5 or PENK) diluted in 200 μL of saline, or 1 mL of 1×BMSC-CM. 16 hours later, mice received a second dose of either vehicle or therapy in conjunction with a dose of 100 μg of LPS (E. coli 0111:B4; Sigma, St. Louis, Mo.) diluted in physiological saline. 48 hours later, mice were sacrificed and tissue and blood were collected for analysis. Serum was tested for the presence of IL-10 and TNF-α via ELISA and lungs, livers and kidneys of the animals were preserved for hematoxylin and eosin staining. For the lethal LPS model, eight week old female BALB/cJ mice (n≧5) were co-administered a lethal dose of LPS (350 μg LPS in 100 μL physiological saline) and either vehicle (negative control), 5 μg anti-TNF-α (positive control; R&D Systems, Minneapolis, Minn.), 4 μg MFAP5 diluted in 100 μL of physiological saline, or 4 μg of PENK diluted in 100 μL of physiological saline. Mice were monitored for survival for seven days (168 hours).

[4] = test system: colitic mice (TNBS colitis); assay: TNBS colitis in mice, colon histopathology; type: in vivo; settings: 3 μg protein twice over 24 h; sacrifice at day 2; compared to vehicle (saline)
Procedure: FIG. 6: Administered MFAP5 and LGALS3BP protect mice from developing TNBS colitis. Mice were presensitized via the skin with 1% TNBS one week prior to intra-rectal administration of 3 mg of TNBS per mouse in a mixture of 50% EtOH and 50% sterile water to induce colitis. Mice were treated with 3 μg each of MFAP5, LGALS3BP and GALNT1 twice over a 24 hour period, once in conjunction with the TNBS administration and once 24 hours later. Mice were then sacrificed at day 2 and tissue collected for analysis. As expected, mice treated with vehicle (saline) developed extensive inflammation of the colon with loss of crypts and frank necrosis of the intestinal epithelium.
MFAP5, LGALS3BP and PENK all protected the colonic epithelium from the hallmark features of TNBS colitis: necrosis, inflammatory infiltrate and loss of crypts. Especially at the microscopic level, the tissue of the MFAP5, LGALS3BP and PENK treated animals looked mostly normal with minor foci of inflammation and edema.

Molecule	increase of IL-10 production compared to 10×MSC-CM [1]	promote IL-10 production or suppress IFN-γ production [2]	serum IL-10 levels [3]	serum TNF-α [3]	protection from TNBS colitis (colon histopathology) [4]	lung histology (lung protection) ([3]; hematoxylin and eosin, sub-lethal LPS model, compared to vehicle)
B1	superior to that induced by 10×MSC-CM	either promote IL-10 production or suppress IFN-γ production	no IL-10 response	significantly suppressed	protect the mice from developing acute colitis; also recorded: significant attenuation of colitis; also recorded: protected from developing extensive colonic inflammation	
B2		either promote IL-10 production or suppress IFN-γ production				
B3	superior to that induced by 10×MSC-CM	either promote IL-10 production or suppress IFN-γ production	Significantly elevated	not	not protected from development of colitis	moderate protection
B4		either promote IL-10 production or suppress IFN-γ production				
